Results published in the RNAGym collection of RNA variant scans (doi:10.7554/elife.80360).

B1: Twister Ribozyme (parent)
chain: AACACUGCCAAUGCCGGUCCCAAGCCCGGAUAAAAGUGGAGGGGGCGG

Variants of: B1
Experiment: self-cleavage, relative activity (ratio to wild type); higher = more cleavage; co-transcriptional

Variant	self-cleavage
AACACUGCCAAUGCCGGUCCCAAGCCCUGAUAAUAGUGGAGGGGGCGG [G28U A34U]	0.585
AACACUGCCAAUGCCGGUCCCAAGCCCUGAUAAAGGUGGAGGGGGCGG [G28U A35G]	0.584
AACACUGCCAAUGCCGGUCCCAAGCCCUGAUAAAUGUGGAGGGGGCGG [G28U A35U]	0.888
AACACUGCCAAUGCCGGUCCCAAGCCCUGAUAAAAGUGGAGGGGGAGG [G28U C46A]	0.778
AACACUGCCAAUGCCGGUCCCAAGCCCUGAUAAAAGUGGAGGGGGGGG [G28U C46G]	0.765
AACACUGCCAAUGCCGGUCCCAAGCCCUAAUAAAAGUGGAGGGGGCGG [G28U G29A]	0.947
AACACUGCCAAUGCCGGUCCCAAGCCCUCAUAAAAGUGGAGGGGGCGG [G28U G29C]	0.928
AACACUGCCAAUGCCGGUCCCAAGCCCUGAUAAAAAUGGAGGGGGCGG [G28U G36A]	0.388
AACACUGCCAAUGCCGGUCCCAAGCCCUGAUAAAACUGGAGGGGGCGG [G28U G36C]	0.232
AACACUGCCAAUGCCGGUCCCAAGCCCUGAUAAAAGUAGAGGGGGCGG [G28U G38A]	0.763
AACACUGCCAAUGCCGGUCCCAAGCCCUGAUAAAAGUCGAGGGGGCGG [G28U G38C]	0.676
AACACUGCCAAUGCCGGUCCCAAGCCCUGAUAAAAGUGUAGGGGGCGG [G28U G39U]	0.177
AACACUGCCAAUGCCGGUCCCAAGCCCUGAUAAAAGUGGAAGGGGCGG [G28U G41A]	0.459
AACACUGCCAAUGCCGGUCCCAAGCCCUGAUAAAAGUGGACGGGGCGG [G28U G41C]	0.263
AACACUGCCAAUGCCGGUCCCAAGCCCUGAUAAAAGUGGAGAGGGCGG [G28U G42A]	0.26
AACACUGCCAAUGCCGGUCCCAAGCCCUGAUAAAAGUGGAGGAGGCGG [G28U G43A]	0.221
AACACUGCCAAUGCCGGUCCCAAGCCCUGAUAAAAGUGGAGGCGGCGG [G28U G43C]	0.151
AACACUGCCAAUGCCGGUCCCAAGCCCUGAUAAAAGUGGAGGUGGCGG [G28U G43U]	0.285
AACACUGCCAAUGCCGGUCCCAAGCCCUGAUAAAAGUGGAGGGCGCGG [G28U G44C]	0.782
AACACUGCCAAUGCCGGUCCCAAGCCCUGAUAAAAGUGGAGGGUGCGG [G28U G44U]	0.879
AACACUGCCAAUGCCGGUCCCAAGCCCUGAUAAAAGUGGAGGGGUCGG [G28U G45U]	0.375
AACACUGCCAAUGCCGGUCCCAAGCCCUGAUAAAAGUGGAGGGGGCAG [G28U G47A]	0.374
AACACUGCCAAUGCCGGUCCCAAGCCCUGAUAAAAGUGGAGGGGGCUG [G28U G47U]	0.567
AACACUGCCAAUGCCGGUCCCAAGCCCUGAGAAAAGUGGAGGGGGCGG [G28U U31G]	0.992
AACACUGCCAAUGCCGGUCCCAAGCCCUGAUAAAAGAGGAGGGGGCGG [G28U U37A]	0.348
AACACUGCCAAUGCCGGUCCCAAGCCCUGAUAAAAGCGGAGGGGGCGG [G28U U37C]	0.431
AACACUGCCAAUGCCGGUCCCAAGCCCUGAUAAAAGGGGAGGGGGCGG [G28U U37G]	0.168

Variant	self-cleavage
AACACUGCCAAUGCCGGUCCCAAGCCCGAAUAAAAGUGGAGGGGGCGG [G29A]	0.915
AACACUGCCAAUGCCGGUCCCAAGCCCGAAUCAAAGUGGAGGGGGCGG [G29A A32C]	0.916
AACACUGCCAAUGCCGGUCCCAAGCCCGAAUUAAAGUGGAGGGGGCGG [G29A A32U]	0.949
AACACUGCCAAUGCCGGUCCCAAGCCCGAAUAGAAGUGGAGGGGGCGG [G29A A33G]	0.845
AACACUGCCAAUGCCGGUCCCAAGCCCGAAUAAGAGUGGAGGGGGCGG [G29A A34G]	0.684
AACACUGCCAAUGCCGGUCCCAAGCCCGAAUAAAGGUGGAGGGGGCGG [G29A A35G]	0.657
AACACUGCCAAUGCCGGUCCCAAGCCCGAAUAAAAGUGGCGGGGGCGG [G29A A40C]	0.176
AACACUGCCAAUGCCGGUCCCAAGCCCGAAUAAAAGUGGGGGGGGCGG [G29A A40G]	0.146
AACACUGCCAAUGCCGGUCCCAAGCCCGAAUAAAAGUGGUGGGGGCGG [G29A A40U]	0.204
AACACUGCCAAUGCCGGUCCCAAGCCCGAAUAAAAGUGGAGGGGGAGG [G29A C46A]	0.922
AACACUGCCAAUGCCGGUCCCAAGCCCGAAUAAAAGUGGAGGGGGUGG [G29A C46U]	0.948
AACACUGCCAAUGCCGGUCCCAAGCCCGAAUAAAAAUGGAGGGGGCGG [G29A G36A]	0.458
AACACUGCCAAUGCCGGUCCCAAGCCCGAAUAAAACUGGAGGGGGCGG [G29A G36C]	0.246
AACACUGCCAAUGCCGGUCCCAAGCCCGAAUAAAAGUUGAGGGGGCGG [G29A G38U]	0.634
AACACUGCCAAUGCCGGUCCCAAGCCCGAAUAAAAGUGUAGGGGGCGG [G29A G39U]	0.232
AACACUGCCAAUGCCGGUCCCAAGCCCGAAUAAAAGUGGAUGGGGCGG [G29A G41U]	0.461
AACACUGCCAAUGCCGGUCCCAAGCCCGAAUAAAAGUGGAGAGGGCGG [G29A G42A]	0.284
AACACUGCCAAUGCCGGUCCCAAGCCCGAAUAAAAGUGGAGUGGGCGG [G29A G42U]	0.323
AACACUGCCAAUGCCGGUCCCAAGCCCGAAUAAAAGUGGAGGAGGCGG [G29A G43A]	0.195
AACACUGCCAAUGCCGGUCCCAAGCCCGAAUAAAAGUGGAGGCGGCGG [G29A G43C]	0.163
AACACUGCCAAUGCCGGUCCCAAGCCCGAAUAAAAGUGGAGGUGGCGG [G29A G43U]	0.326
AACACUGCCAAUGCCGGUCCCAAGCCCGAAUAAAAGUGGAGGGAGCGG [G29A G44A]	0.738
AACACUGCCAAUGCCGGUCCCAAGCCCGAAUAAAAGUGGAGGGCGCGG [G29A G44C]	0.803
AACACUGCCAAUGCCGGUCCCAAGCCCGAAUAAAAGUGGAGGGUGCGG [G29A G44U]	0.922
AACACUGCCAAUGCCGGUCCCAAGCCCGAAUAAAAGUGGAGGGGCCGG [G29A G45C]	0.249
AACACUGCCAAUGCCGGUCCCAAGCCCGAAUAAAAGUGGAGGGGGCAG [G29A G47A]	0.689
AACACUGCCAAUGCCGGUCCCAAGCCCGAAUAAAAGUGGAGGGGGCCG [G29A G47C]	0.347
